B1: ephrin-A1: natural EphA2 protein ligand, molecular weight approx. 21 kDa (protein)
chain: DRHTVFWNSSNPKFRNEDYTIHVQLNDYVDIICPHYEDHSVADAAMEQYILYLVEHEEYQLCQPQSKDQVRWQCNRPSAKHGPEKLSEKFQRFTPFTLGKEFKEGHSYYYISKPIHQHEDRCLRLKVTVSGKITHSPQAHDNPQEKRLAADDPEVRVLHSIGHS
modifications: Limits are the mature chain without signal peptide and GPI propeptide, by convention; the approx. 21 kDa MW fits a non-Fc soluble form; Possible N-glycan at Asn

Molecular target: T1, EphA2 receptor (Homo sapiens, UniProt P29317)
T1 construct: PC-3 prostate cancer cells that overexpress the EphA2 receptor; endogenous in cells; host or cells: PC-3 cells (ATCC CRL-1435)
T1 sequence (P29317 24-976): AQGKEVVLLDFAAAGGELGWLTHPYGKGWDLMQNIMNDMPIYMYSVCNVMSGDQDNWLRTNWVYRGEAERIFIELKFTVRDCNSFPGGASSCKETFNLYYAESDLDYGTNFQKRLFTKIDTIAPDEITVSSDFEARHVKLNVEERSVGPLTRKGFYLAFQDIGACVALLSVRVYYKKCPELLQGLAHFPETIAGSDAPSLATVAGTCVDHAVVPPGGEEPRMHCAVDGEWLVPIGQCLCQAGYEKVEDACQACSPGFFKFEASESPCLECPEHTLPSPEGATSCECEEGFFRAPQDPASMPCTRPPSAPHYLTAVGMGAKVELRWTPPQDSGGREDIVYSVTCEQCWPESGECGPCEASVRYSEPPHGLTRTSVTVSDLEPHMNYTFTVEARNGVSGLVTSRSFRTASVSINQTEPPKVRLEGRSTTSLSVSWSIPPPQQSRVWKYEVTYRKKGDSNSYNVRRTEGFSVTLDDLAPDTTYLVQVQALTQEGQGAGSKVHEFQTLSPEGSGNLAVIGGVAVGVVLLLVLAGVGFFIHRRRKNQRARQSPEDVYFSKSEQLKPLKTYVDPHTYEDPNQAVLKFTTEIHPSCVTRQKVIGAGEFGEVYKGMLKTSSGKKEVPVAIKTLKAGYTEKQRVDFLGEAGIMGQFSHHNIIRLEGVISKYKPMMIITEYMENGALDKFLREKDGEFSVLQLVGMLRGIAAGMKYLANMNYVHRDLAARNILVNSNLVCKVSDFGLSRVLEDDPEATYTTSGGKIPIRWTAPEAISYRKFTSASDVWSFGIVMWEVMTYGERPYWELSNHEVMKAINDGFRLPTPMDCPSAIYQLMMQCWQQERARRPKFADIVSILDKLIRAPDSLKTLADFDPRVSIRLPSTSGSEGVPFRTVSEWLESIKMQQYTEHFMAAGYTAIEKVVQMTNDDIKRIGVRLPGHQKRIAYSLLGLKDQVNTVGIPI
Experiment: EphA2 phosphorylation assay (sandwich ELISA, DuoSet IC Human Phospho-EphA2 kit) in PC-3 cells
Format: cell-based

[1] = serum-starved PC-3 cells, 30 min at 37 °C, duplicates, sandwich ELISA, approximate EC50 from least-square fit (Equation 1), mean ± standard deviation, concentration of whole entity (DNA construct or peptide)

Description: Serum-starved PC-3 cells were treated with different SWL-DNA trimer constructs (9 µM), monomeric SWL peptide (150 µM) and the natural ligand ephrin-A1 (1.5 µg/mL) in duplicates for 30 min at 37 °C. Cells were washed with 1× PBS twice and further treated according to the manufacturer’s instructions.
Serum-starved PC-3 cells were treated with different concentrations of constructs in duplicates for 30 min at 37 °C. Cells were washed with 1× PBS twice and further treated according to the manufacturer’s instructions. […] Standard deviation is presented as error bars. The x-axis indicates concentrations of the constructs in terms of DNA for 0xSWL-DNA trimer—3xSWL-DNA trimer and the concentration of the peptide for SWL.
Levels of EphA2 phosphorylation were determined using the DuoSet IC Human Phospho-EphA2 kit (R&D systems, Minneapolis, MN, USA) which is based on a sandwich ELISA. Briefly, 2 × 10^5 PC-3 cells were seeded three days before the assay for the comparison of ligands. For the concentration series used to determine EC50 values, 1 × 10^6 PC-3 cells were seeded into 12-well culture plates one day before the assay. On the day of the experiment, cells were serum-starved for 4 h and treated with either 1xSWL-DNA trimer, 2xSWL-DNA trimer, 3xSWL-DNA trimer, natural ligand ephrin-A1, SWL peptide, DNA trimer only or 1× PBS/10 mM MgCl2 as negative control for 30 min at 37 °C. Cells were lysed using 250 µL/well lysis buffer (according to kit) and assayed as indicated by manufacturer’s instructions. Manifold washing was conducted after every step and the whole procedure was executed at room temperature. In brief, 96-well ELISA plates carrying specific human EphA2 capture antibodies were incubated with cell lysates of afore treated PC-3 cells. This was followed by the addition of anti-phospho-tyrosine-HRP antibodies which ultimately fulfil a colorimetric reaction by conversion of 3,3′,5,5′-Tetramethylbenzidine substrate solution for 25 min (ligands in Figure 4a) or 8 min (ephrin-A1 in Figure A7). This reaction was stopped by adding 2 N H2SO4 and absorbance was measured at 450 nm and at 520 nm (infinite M1000, Tecan, Switzerland); the latter was subtracted as reference value. To normalize values from concentration series, controls (only 1× PBS/10 mM MgCl2) were subtracted, too. Data was analyzed by fitting to the equation: (1) A=Amin+(Amax−Amin)/1+(x/EC50)^−b where A is the observed absorbance, Amin and Amax are minimal and maximal absorbance respectively, and b is the Hill coefficient.

| Molecule | EC50 [1] [nM] | EC50 for EphA2 receptor phosphorylation (ephrin-A1 dose-response (Figure A7), PC-3 cells, 30 min at 37 °C, substrate reaction 8 min) [µg/mL] | EC50 (ephrin-A1 dose-response (Figure A7), PC-3 cells, conversion of the µg/mL value) [nM] |
| --- | --- | --- | --- |
| CC(C)C[C@H](NC(=O)[C@H](Cc1c[nH]c2ccccc12)NC(=O)[C@@H](N)CO)C(=O)N[C@@H](C)C(=O)N[C@@H](Cc1ccc(O)cc1)C(=O)N1CCC[C@H]1C(=O)NCC(=O)N[C@@H](C)C(=O)N[C@H](C(=O)N[C@@H](CO)C(=O)N[C@@H](Cc1ccc(O)cc1)C(=O)N[C@@H](CCCNC(=N)N)C(=O)NCC(=O)NCC(=O)N[C@@H](CCCCN=[N+]=[N-])C(=O)O)C(C)C [SWL, reference compound] | 154000 ± 115000 | – | – |
| B1 | 2.7 ± 0.5 | 0.0552 ± 0.0103 | 2.65 |
